Measurements as given in article PMC11820797, “Rapid Detection of Alpha-Fetoprotein (AFP) with Lateral Flow Aptasensor”.

Target: T1, alpha-fetoprotein (AFP) (UniProt P02771 19-609)
T1 sequence: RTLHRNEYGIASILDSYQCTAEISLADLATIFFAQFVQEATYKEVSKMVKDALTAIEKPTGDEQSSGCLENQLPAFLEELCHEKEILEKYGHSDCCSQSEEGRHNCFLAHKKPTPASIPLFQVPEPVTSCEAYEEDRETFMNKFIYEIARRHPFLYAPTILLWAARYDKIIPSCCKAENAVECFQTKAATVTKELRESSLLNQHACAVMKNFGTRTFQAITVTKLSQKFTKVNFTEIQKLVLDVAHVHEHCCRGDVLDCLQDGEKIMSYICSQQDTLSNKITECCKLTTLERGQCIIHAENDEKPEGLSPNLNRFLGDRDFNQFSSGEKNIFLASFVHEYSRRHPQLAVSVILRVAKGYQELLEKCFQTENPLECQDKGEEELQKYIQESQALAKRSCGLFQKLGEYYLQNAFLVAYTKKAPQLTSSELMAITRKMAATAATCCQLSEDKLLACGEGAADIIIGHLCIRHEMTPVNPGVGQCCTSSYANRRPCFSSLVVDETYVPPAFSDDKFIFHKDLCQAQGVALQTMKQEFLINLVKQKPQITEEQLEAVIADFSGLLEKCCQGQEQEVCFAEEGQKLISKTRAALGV
Assay: lateral flow aptamer sandwich; AP-273 as both AuNP probe and capture probe; 100 ng/mL AFP detected; LOD 10 ng/mL; Lateral flow strip, 50 uL running buffer (composition not in the material); pads pretreated with 0.05 M Tris-HCl, 2.5% Tween-20, 0.25% Triton X-100; assay pH and temperature not given
Conditions: label: AuNP (Det-Apt); biotin-streptavidin (Cap-Apt)

B1: AP-273 (Det-Apt / Cap-Apt) (ssDNA)
DNA: GTGACGCTCCTAACGCTGACTCAGGTGCAGTTCTCGACTCGGTCTTGATGTGGGTCCTGTCCGTCCGAACCAATC
modifications: thiol (Det-Apt) or biotin (Cap-Apt), printed at 5' end
binding result: binds
